The results in this text go back to patent publication US20260167721A1 (ABLEXIS, published 2026).

The target of assay [1] is T1, CD3 on Jurkat wild-type cells (UniProt P07766 23-207; P04234 22-171; P09693 23-182).
T1 construct: whole, on cells; also called Jurkat WT
The assay can be described thus: flow cytometry on Jurkat WT cells, antibody at 1 ug/ml.

Assay [2] has as its target T1, CD3 on Jurkat wild-type cells. The assay can be described thus: flow cytometry on Jurkat WT cells, antibody at 10 ug/ml.
The target of assay [3] is T2, CD33 on KILR-HL60 cells (UniProt P20138 18-364, limits assumed).
T2 construct: whole, on cells; Target of the gemtuzumab arm; also called CD33 expressing cells
T2 sequence (P20138 18-364 limits assumed): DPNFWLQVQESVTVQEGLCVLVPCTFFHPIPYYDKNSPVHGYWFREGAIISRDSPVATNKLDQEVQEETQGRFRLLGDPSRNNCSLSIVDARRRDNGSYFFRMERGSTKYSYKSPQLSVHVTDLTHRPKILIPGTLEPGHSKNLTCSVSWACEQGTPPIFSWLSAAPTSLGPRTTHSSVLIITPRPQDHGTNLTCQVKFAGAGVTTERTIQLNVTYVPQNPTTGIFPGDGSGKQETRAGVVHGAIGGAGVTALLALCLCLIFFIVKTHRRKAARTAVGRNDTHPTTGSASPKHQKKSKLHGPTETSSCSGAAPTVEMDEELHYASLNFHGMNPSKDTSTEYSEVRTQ
The assay can be described thus: flow cytometry on KILR-HL60 (CD33 expressing) cells, antibody at 1 ug/ml.

The target of assay [4] is T2, CD33 on KILR-HL60 cells. The assay can be described thus: flow cytometry on KILR-HL60 (CD33 expressing) cells, antibody at 10 ug/ml.

T1 sequence (P07766 23-207, chain 1 of 3): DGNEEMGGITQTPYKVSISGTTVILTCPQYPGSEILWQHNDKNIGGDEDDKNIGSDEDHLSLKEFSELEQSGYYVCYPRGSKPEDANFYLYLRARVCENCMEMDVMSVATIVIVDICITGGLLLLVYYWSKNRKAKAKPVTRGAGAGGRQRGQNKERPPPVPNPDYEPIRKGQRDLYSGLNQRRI
T1 sequence (P04234 22-171, chain 2 of 3): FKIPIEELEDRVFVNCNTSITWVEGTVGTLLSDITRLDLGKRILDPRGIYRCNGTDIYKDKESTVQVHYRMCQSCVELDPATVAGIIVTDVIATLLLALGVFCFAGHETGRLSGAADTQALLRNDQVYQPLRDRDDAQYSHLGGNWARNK
T1 sequence (P09693 23-182, chain 3 of 3): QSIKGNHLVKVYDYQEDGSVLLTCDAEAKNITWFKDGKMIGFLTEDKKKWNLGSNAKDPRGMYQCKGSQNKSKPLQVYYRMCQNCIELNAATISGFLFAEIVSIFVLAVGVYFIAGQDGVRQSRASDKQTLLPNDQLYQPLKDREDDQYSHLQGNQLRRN

B1: CD3 × CD33-BspAb36 (bispecific antibody)
scFv-Fc: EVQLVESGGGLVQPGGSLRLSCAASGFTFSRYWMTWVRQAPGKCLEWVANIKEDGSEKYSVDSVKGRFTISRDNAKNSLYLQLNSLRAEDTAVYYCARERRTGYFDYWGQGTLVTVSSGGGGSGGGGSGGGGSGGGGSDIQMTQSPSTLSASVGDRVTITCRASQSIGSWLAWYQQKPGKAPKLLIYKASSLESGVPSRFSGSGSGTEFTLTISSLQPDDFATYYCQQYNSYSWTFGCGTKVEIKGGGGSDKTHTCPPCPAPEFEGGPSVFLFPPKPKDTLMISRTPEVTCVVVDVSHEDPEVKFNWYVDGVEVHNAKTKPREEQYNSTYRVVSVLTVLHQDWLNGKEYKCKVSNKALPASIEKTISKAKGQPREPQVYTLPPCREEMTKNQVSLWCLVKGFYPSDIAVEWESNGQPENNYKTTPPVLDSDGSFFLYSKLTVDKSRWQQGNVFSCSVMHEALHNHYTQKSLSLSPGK
heavy: EVQLVQSGAEVKKPGSSVKVSCKASGYTITDSNIHWVRQAPGQSLEWIGYIYPYNGGTDYNQKFKNRATLTVDNPTNTAYMELSSLRSEDTAFYYCVNGNPWLAYWGQGTLVTVSSASTKGPSVFPLAPSSKSTSGGTAALGCLVKDYFPEPVTVSWNSGALTSGVHTFPAVLQSSGLYSLSSVVTVPSSSLGTQTYICNVNHKPSNTKVDKRVEPKSCDKTHTCPPCPAPEFEGGPSVFLFPPKPKDTLMISRTPEVTCVVVDVSHEDPEVKFNWYVDGVEVHNAKTKPREEQYNSTYRVVSVLTVLHQDWLNGKEYKCKVSNKALPASIEKTISKAKGQPREPQVCTLPPSREEMTKNQVSLSCAVKGFYPSDIAVEWESNGQPENNYKTTPPVLDSDGSFFLVSKLTVDKSRWQQGNVFSCSVMHEALHNRFTQKSLSLSPGK
light: DIQLTQSPSTLSASVGDRVTITCRASESLDNYGIRFLTWFQQKPGKAPKLLMYAASNQGSGVPSRFSGSGSGTEFTLTISSLQPDDFATYYCQQTKEVPWSFGQGTKVEVKRTVAAPSVFIFPPSDEQLKSGTASVVCLLNNFYPREAKVQWKVDNALQSGNSQESVTEQDSKDSTYSLSSTLTLSKADYEKHKVYACEVTHQGLSSPVTKSFNRGEC
In the case of B1, the flow cytometry signal was 12500 in assay [1], 26100 in assay [2], 569000 in assay [3] and 746000 in assay [4].

B2: CD3 × CD33-BspAb44 (bispecific antibody)
chain 1: EVQLVESGGGLVKPGGSLRLSCAASGFTFSRYSMNWVRQAPGKCLKWVSSISSSGSYKYYADSVKGRFTISRDNAKNSLYLQMNSLRAEDTAVYYCAREPPTLGMDYWGQGTLVTVSSGGGGSGGGGSGGGGSGGGGSNFMLTQPHSVSESPGKTVTISCTRSSGSIASNYVQWYQQRPGSSPTTVIYEDNQRPSGVPDRFSGSIDSSSNSASLTISGLKTEDEADYYCQSFDNSNRVFGCGTKLTVLDKTHTCPPCPAPEFEGGPSVFLFPPKPKDTLMISRTPEVTCVVVDVSHEDPEVKFNWYVDGVEVHNAKTKPREEQYNSTYRVVSVLTVLHQDWLNGKEYKCKVSNKALPASIEKTISKAKGQPREPQVYTLPPCREEMTKNQVSLWCLVKGFYPSDIAVEWESNGQPENNYKTTPPVLDSDGSFFLYSKLTVDKSRWQQGNVFSCSVMHEALHNHYTQKSLSLSPGK
chain 2: EVQLVQSGAEVKKPGSSVKVSCKASGYTITDSNIHWVRQAPGQSLEWIGYIYPYNGGTDYNQKFKNRATLTVDNPTNTAYMELSSLRSEDTAFYYCVNGNPWLAYWGQGTLVTVSSASTKGPSVFPLAPSSKSTSGGTAALGCLVKDYFPEPVTVSWNSGALTSGVHTFPAVLQSSGLYSLSSVVTVPSSSLGTQTYICNVNHKPSNTKVDKRVEPKSCDKTHTCPPCPAPEFEGGPSVFLFPPKPKDTLMISRTPEVTCVVVDVSHEDPEVKFNWYVDGVEVHNAKTKPREEQYNSTYRVVSVLTVLHQDWLNGKEYKCKVSNKALPASIEKTISKAKGQPREPQVCTLPPSREEMTKNQVSLSCAVKGFYPSDIAVEWESNGQPENNYKTTPPVLDSDGSFFLVSKLTVDKSRWQQGNVFSCSVMHEALHNRFTQKSLSLSPGK
chain 3: DIQLTQSPSTLSASVGDRVTITCRASESLDNYGIRFLTWFQQKPGKAPKLLMYAASNQGSGVPSRFSGSGSGTEFTLTISSLQPDDFATYYCQQTKEVPWSFGQGTKVEVKRTVAAPSVFIFPPSDEQLKSGTASVVCLLNNFYPREAKVQWKVDNALQSGNSQESVTEQDSKDSTYSLSSTLTLSKADYEKHKVYACEVTHQGLSSPVTKSFNRGEC
In the case of B2, the flow cytometry signal was determined as 113000 in assay [1], 84800 in assay [2], 640000 in assay [3] and 475000 in assay [4].

B3: CD3 × CD33-BspAb38 (bispecific antibody)
scFv-Fc: not shown
heavy: EVQLVQSGAEVKKPGSSVKVSCKASGYTITDSNIHWVRQAPGQSLEWIGYIYPYNGGTDYNQKFKNRATLTVDNPTNTAYMELSSLRSEDTAFYYCVNGNPWLAYWGQGTLVTVSSASTKGPSVFPLAPSSKSTSGGTAALGCLVKDYFPEPVTVSWNSGALTSGVHTFPAVLQSSGLYSLSSVVTVPSSSLGTQTYICNVNHKPSNTKVDKRVEPKSCDKTHTCPPCPAPEFEGGPSVFLFPPKPKDTLMISRTPEVTCVVVDVSHEDPEVKFNWYVDGVEVHNAKTKPREEQYNSTYRVVSVLTVLHQDWLNGKEYKCKVSNKALPASIEKTISKAKGQPREPQVCTLPPSREEMTKNQVSLSCAVKGFYPSDIAVEWESNGQPENNYKTTPPVLDSDGSFFLVSKLTVDKSRWQQGNVFSCSVMHEALHNRFTQKSLSLSPGK
light: DIQLTQSPSTLSASVGDRVTITCRASESLDNYGIRFLTWFQQKPGKAPKLLMYAASNQGSGVPSRFSGSGSGTEFTLTISSLQPDDFATYYCQQTKEVPWSFGQGTKVEVKRTVAAPSVFIFPPSDEQLKSGTASVVCLLNNFYPREAKVQWKVDNALQSGNSQESVTEQDSKDSTYSLSSTLTLSKADYEKHKVYACEVTHQGLSSPVTKSFNRGEC
For B3, the flow cytometry signal in assay [1] was determined as 23700; in assay [2], 34100; in assay [3], 635000; in assay [4] it was 476000.

B4: CD3 × CD33-BspAb42 (bispecific antibody)
chain 1: EVQLVESGGGLVKPGGSLRLSCAASGFTLSSYSMNWVRQAPGKCLEWVSSISRSGSYIYYADSVKGRFTISRDNAKNSLYLQMNSLRAEDTAVYYCAREKWELLYFDYWGQGTLVTVSSGGGGSGGGGSGGGGSGGGGSNFMLTQPHSVSESPGKTVTISCTRSSGSIASNYVQWYQQRPGSSPTTVIYEDNQRPSGVPDRFSGSIDSSSNSASLTISGLKTEDEADYYCQSYDSSNRVFGCGTKLTVLDKTHTCPPCPAPEFEGGPSVFLFPPKPKDTLMISRTPEVTCVVVDVSHEDPEVKFNWYVDGVEVHNAKTKPREEQYNSTYRVVSVLTVLHQDWLNGKEYKCKVSNKALPASIEKTISKAKGQPREPQVYTLPPCREEMTKNQVSLWCLVKGFYPSDIAVEWESNGQPENNYKTTPPVLDSDGSFFLYSKLTVDKSRWQQGNVFSCSVMHEALHNHYTQKSLSLSPGK
chain 2: EVQLVQSGAEVKKPGSSVKVSCKASGYTITDSNIHWVRQAPGQSLEWIGYIYPYNGGTDYNQKFKNRATLTVDNPTNTAYMELSSLRSEDTAFYYCVNGNPWLAYWGQGTLVTVSSASTKGPSVFPLAPSSKSTSGGTAALGCLVKDYFPEPVTVSWNSGALTSGVHTFPAVLQSSGLYSLSSVVTVPSSSLGTQTYICNVNHKPSNTKVDKRVEPKSCDKTHTCPPCPAPEFEGGPSVFLFPPKPKDTLMISRTPEVTCVVVDVSHEDPEVKFNWYVDGVEVHNAKTKPREEQYNSTYRVVSVLTVLHQDWLNGKEYKCKVSNKALPASIEKTISKAKGQPREPQVCTLPPSREEMTKNQVSLSCAVKGFYPSDIAVEWESNGQPENNYKTTPPVLDSDGSFFLVSKLTVDKSRWQQGNVFSCSVMHEALHNRFTQKSLSLSPGK
chain 3: DIQLTQSPSTLSASVGDRVTITCRASESLDNYGIRFLTWFQQKPGKAPKLLMYAASNQGSGVPSRFSGSGSGTEFTLTISSLQPDDFATYYCQQTKEVPWSFGQGTKVEVKRTVAAPSVFIFPPSDEQLKSGTASVVCLLNNFYPREAKVQWKVDNALQSGNSQESVTEQDSKDSTYSLSSTLTLSKADYEKHKVYACEVTHQGLSSPVTKSFNRGEC
Consider B4, for which the flow cytometry signal came to 12200 in assay [1], 26400 in assay [2], 453000 in assay [3] and 485000 in assay [4].

B5: CD3 × CD33-BspAb39 (bispecific antibody)
chain 1: not shown
chain 2: EVQLVQSGAEVKKPGSSVKVSCKASGYTITDSNIHWVRQAPGQSLEWIGYIYPYNGGTDYNQKFKNRATLTVDNPTNTAYMELSSLRSEDTAFYYCVNGNPWLAYWGQGTLVTVSSASTKGPSVFPLAPSSKSTSGGTAALGCLVKDYFPEPVTVSWNSGALTSGVHTFPAVLQSSGLYSLSSVVTVPSSSLGTQTYICNVNHKPSNTKVDKRVEPKSCDKTHTCPPCPAPEFEGGPSVFLFPPKPKDTLMISRTPEVTCVVVDVSHEDPEVKFNWYVDGVEVHNAKTKPREEQYNSTYRVVSVLTVLHQDWLNGKEYKCKVSNKALPASIEKTISKAKGQPREPQVCTLPPSREEMTKNQVSLSCAVKGFYPSDIAVEWESNGQPENNYKTTPPVLDSDGSFFLVSKLTVDKSRWQQGNVFSCSVMHEALHNRFTQKSLSLSPGK
chain 3: DIQLTQSPSTLSASVGDRVTITCRASESLDNYGIRFLTWFQQKPGKAPKLLMYAASNQGSGVPSRFSGSGSGTEFTLTISSLQPDDFATYYCQQTKEVPWSFGQGTKVEVKRTVAAPSVFIFPPSDEQLKSGTASVVCLLNNFYPREAKVQWKVDNALQSGNSQESVTEQDSKDSTYSLSSTLTLSKADYEKHKVYACEVTHQGLSSPVTKSFNRGEC
Regarding B5, the flow cytometry signal in assay [1] stood at 2160; in assay [2], 2740; in assay [3], 541000; in assay [4], 572000.
